Data as given in patent US11325966.

What was measured:
Assay in all cases: cell-based or functional assay
[1] = biological target: 92BR020 (HIV-1)
[2] = biological target: 92BR020 D325A (HIV-1)
[3] = biological target: 92BR020 N136A + N156A + N301A (HIV-1)
[4] = biological target: 92BR020 N156A + N332A (HIV-1)
[5] = biological target: 92BR020 N301A + N332A (HIV-1)
[6] = biological target: 92BR020 N332A (HIV-1)
[7] = biological target: 92BR020 N386A (HIV-1)
[8] = biological target: 92BR020 N392A (HIV-1)
[9] = biological target: BG505 (T332N) N295A (HIV-1)
[10] = biological target: BG505 (T332N) N392A (HIV-1)
[11] = biological target: HIV-1 Env of pseudovirus 1006_11_C3_1601 (HIV-1)
[12] = biological target: HIV-1 Env of pseudovirus 1012_11_TC21_3257 (HIV-1)
[13] = biological target: HIV-1 Env of pseudovirus 191084 B7-19 (HIV-1)
[14] = biological target: HIV-1 Env of pseudovirus 191955_A11 (HIV-1)
[15] = biological target: HIV-1 Env of pseudovirus 211-9 (HIV-1)
[16] = biological target: HIV-1 Env of pseudovirus 231965.c01 (HIV-1)
[17] = biological target: HIV-1 Env of pseudovirus 235-47 (HIV-1)
[18] = biological target: HIV-1 Env of pseudovirus 249M B10 (HIV-1)
[19] = biological target: HIV-1 Env of pseudovirus 3103.v3.c10 (HIV-1)
[20] = biological target: HIV-1 Env of pseudovirus 3415.v1.c1 (HIV-1)
[21] = biological target: HIV-1 Env of pseudovirus 6240_08_TA5_4622 (HIV-1)
[22] = biological target: HIV-1 Env of pseudovirus 6545.v4.c1 (HIV-1)
[23] = biological target: HIV-1 Env of pseudovirus 7030102001E5(Rev-) (HIV-1)
[24] = biological target: HIV-1 Env of pseudovirus AC10.0.29 (HIV-1)
[25] = biological target: HIV-1 Env of pseudovirus BJOX009000.02.4 (HIV-1)
[26] = biological target: HIV-1 Env of pseudovirus BJOX010000.06.2 (HIV-1)
[27] = biological target: HIV-1 Env of pseudovirus CAP45.2.00.G3 (HIV-1)
[28] = biological target: HIV-1 Env of pseudovirus Ce0682_E4 (HIV-1)
[29] = biological target: HIV-1 Env of pseudovirus Ce2010_F5 (HIV-1)
[30] = biological target: HIV-1 Env of pseudovirus Ce704809221_1B3 (HIV-1)
[31] = biological target: HIV-1 Env of pseudovirus HIV-0013095-2.11 (HIV-1)
[32] = biological target: HIV-1 Env of pseudovirus MS208.A1 (HIV-1)
[33] = biological target: HIV-1 Env of pseudovirus PVO.4 (HIV-1)
[34] = biological target: HIV-1 Env of pseudovirus QH0692.42 (HIV-1)
[35] = biological target: HIV-1 Env of pseudovirus R1166.c01 (HIV-1)
[36] = biological target: HIV-1 Env of pseudovirus REJO4541.67 (HIV-1)
[37] = biological target: HIV-1 Env of pseudovirus SC05_8C11_2344 (HIV-1)
[38] = biological target: HIV-1 Env of pseudovirus T257-31 (HIV-1)
[39] = biological target: HIV-1 Env of pseudovirus WEAU_d15_410_787 (HIV-1)
[40] = biological target: HIV-1 Env of pseudovirus X1254_c3 (HIV-1)
[41] = biological target: HIV-1 Env of pseudovirus X2088_c9 (HIV-1)
[42] = biological target: HIV-1 Env of pseudovirus ZM109F.PB4 (HIV-1)
[43] = biological target: HIV-1 Env of pseudovirus ZM233M.PB6 (HIV-1)

354BG8 (antibody)
IC50 in TZM-bl assay [1]: 0.015 µg/mL | IC50 in TZM-bl assay [2]: 0.006 µg/mL | IC50 in TZM-bl assay [3]: 0.001 µg/mL | IC50 in TZM-bl assay [4]: > 50 µg/mL | IC50 in TZM-bl assay [5]: > 50 µg/mL | IC50 in TZM-bl assay [6]: > 50 µg/mL | IC50 in TZM-bl assay [7]: 0.012 µg/mL | IC50 in TZM-bl assay [8]: 0.023 µg/mL | IC50 in TZM-bl assay [9]: 0.009 µg/mL | IC50 in TZM-bl assay [10]: 0.005 µg/mL | IC50 in TZM-bl assay [11]: 0.002 µg/mL | IC80 in TZM-bl assay [11]: 0.006 µg/mL | IC50 in TZM-bl assay [12]: 0.011 µg/mL | IC80 in TZM-bl assay [12]: 0.047 µg/mL | IC50 in TZM-bl assay [13]: 0.026 µg/mL | IC80 in TZM-bl assay [13]: 0.108 µg/mL | IC50 in TZM-bl assay [14]: > 10 µg/mL | IC80 in TZM-bl assay [14]: > 10 µg/mL | IC50 in TZM-bl assay [15]: 0.065 µg/mL | IC80 in TZM-bl assay [15]: 0.403 µg/mL | IC50 in TZM-bl assay [16]: > 10 µg/mL | IC80 in TZM-bl assay [16]: > 10 µg/mL | IC50 in TZM-bl assay [17]: 0.058 µg/mL | IC80 in TZM-bl assay [17]: 0.224 µg/mL | IC50 in TZM-bl assay [18]: > 10 µg/mL | IC80 in TZM-bl assay [18]: > 10 µg/mL | IC50 in TZM-bl assay [19]: 0.024 µg/mL | IC80 in TZM-bl assay [19]: 0.061 µg/mL | IC50 in TZM-bl assay [20]: > 10 µg/mL | IC80 in TZM-bl assay [20]: > 10 µg/mL | IC50 in TZM-bl assay [21]: 0.038 µg/mL | IC80 in TZM-bl assay [21]: 0.131 µg/mL | IC50 in TZM-bl assay [22]: > 10 µg/mL | IC80 in TZM-bl assay [22]: > 10 µg/mL | IC50 in TZM-bl assay [23]: 0.009 µg/mL | IC80 in TZM-bl assay [23]: 0.019 µg/mL | IC50 in TZM-bl assay [24]: 0.015 µg/mL | IC80 in TZM-bl assay [24]: 0.043 µg/mL | IC50 in TZM-bl assay [25]: > 10 µg/mL | IC80 in TZM-bl assay [25]: > 10 µg/mL | IC50 in TZM-bl assay [26]: > 10 µg/mL | IC80 in TZM-bl assay [26]: > 10 µg/mL | IC50 in TZM-bl assay [27]: > 10 µg/mL | IC80 in TZM-bl assay [27]: > 10 µg/mL | IC50 in TZM-bl assay [28]: > 10 µg/mL | IC80 in TZM-bl assay [28]: > 10 µg/mL | IC50 in TZM-bl assay [29]: > 10 µg/mL | IC80 in TZM-bl assay [29]: > 10 µg/mL | IC50 in TZM-bl assay [30]: 0.084 µg/mL | IC80 in TZM-bl assay [30]: 0.395 µg/mL | IC50 in TZM-bl assay [31]: > 10 µg/mL | IC80 in TZM-bl assay [31]: > 10 µg/mL | IC50 in TZM-bl assay [32]: > 10 µg/mL | IC80 in TZM-bl assay [32]: > 10 µg/mL | IC50 in TZM-bl assay [33]: 0.072 µg/mL | IC80 in TZM-bl assay [33]: 0.252 µg/mL | IC50 in TZM-bl assay [34]: 0.106 µg/mL | IC80 in TZM-bl assay [34]: 0.383 µg/mL | IC50 in TZM-bl assay [35]: > 10 µg/mL | IC80 in TZM-bl assay [35]: > 10 µg/mL | IC50 in TZM-bl assay [36]: > 10 µg/mL | IC80 in TZM-bl assay [36]: > 10 µg/mL | IC50 in TZM-bl assay [37]: 0.017 µg/mL | IC80 in TZM-bl assay [37]: 0.048 µg/mL | IC50 in TZM-bl assay [38]: > 10 µg/mL | IC80 in TZM-bl assay [38]: > 10 µg/mL | IC50 in TZM-bl assay [39]: 0.031 µg/mL | IC80 in TZM-bl assay [39]: 0.112 µg/mL | IC50 in TZM-bl assay [40]: 0.063 µg/mL | IC80 in TZM-bl assay [40]: 0.239 µg/mL | IC50 in TZM-bl assay [41]: 0.003 µg/mL | IC80 in TZM-bl assay [41]: 0.01 µg/mL | IC50 in TZM-bl assay [42]: > 10 µg/mL | IC80 in TZM-bl assay [42]: > 10 µg/mL | IC50 in TZM-bl assay [43]: 0.058 µg/mL | IC80 in TZM-bl assay [43]: 0.371 µg/mL
